B1: TNC III1-5 (other)
chain: EVSPPKDLVVTEVTEETVNLAWDNEMRVTEYLVVYTPTHEGGLEMQFRVPGDQTSTIIQELEPGVEYFIRVFAILENKKSIPVSARVATYLPAPEGLKFKSIKETSVEVEWDPLDIAFETWEIIFRNMNKEDEGEITKSLRRPETSYRQTGLAPGQEYEISLHIVKNNTRGPGLKRVTTTRLDAPSQIEVKDVTDTTALITWFKPLAEIDGIELTYGIKDVPGDRTTIDLTEDENQYSIGNLKPDTEYEVSLISRRGDMSSNPAKETFTTGLDAPRNLRRVSQTDNSITLEWRNGKAAIDSYRIKYAPISGGDHAEVDVPKSQQATTKTTLTGLRPGTEYGIGVSAVKEDKESNPATINAATELDTPKDLQVSETAETSLTLLWKTPLAKFDRYRLNYSLPTGQWVGVQLPRNTTSYVLRGLEPGQEYNVLLTAEKGRHKSKPARVKASTEQAGGGSHHHHHH
notes: The secreted protein in the assays lacks the leader; also called TG-TNC III1-5; engineered TNC III1-5

Key:
HGF = HGF (UniProt P14210 32-728); test: ELISA: cytokine coated (50 nM), 100 nM TNC III1-5 in solution, HRP-anti-His, A450; black bars without, white bars with 4 µM heparin
Chain of HGF (P14210 32-728 limits assumed): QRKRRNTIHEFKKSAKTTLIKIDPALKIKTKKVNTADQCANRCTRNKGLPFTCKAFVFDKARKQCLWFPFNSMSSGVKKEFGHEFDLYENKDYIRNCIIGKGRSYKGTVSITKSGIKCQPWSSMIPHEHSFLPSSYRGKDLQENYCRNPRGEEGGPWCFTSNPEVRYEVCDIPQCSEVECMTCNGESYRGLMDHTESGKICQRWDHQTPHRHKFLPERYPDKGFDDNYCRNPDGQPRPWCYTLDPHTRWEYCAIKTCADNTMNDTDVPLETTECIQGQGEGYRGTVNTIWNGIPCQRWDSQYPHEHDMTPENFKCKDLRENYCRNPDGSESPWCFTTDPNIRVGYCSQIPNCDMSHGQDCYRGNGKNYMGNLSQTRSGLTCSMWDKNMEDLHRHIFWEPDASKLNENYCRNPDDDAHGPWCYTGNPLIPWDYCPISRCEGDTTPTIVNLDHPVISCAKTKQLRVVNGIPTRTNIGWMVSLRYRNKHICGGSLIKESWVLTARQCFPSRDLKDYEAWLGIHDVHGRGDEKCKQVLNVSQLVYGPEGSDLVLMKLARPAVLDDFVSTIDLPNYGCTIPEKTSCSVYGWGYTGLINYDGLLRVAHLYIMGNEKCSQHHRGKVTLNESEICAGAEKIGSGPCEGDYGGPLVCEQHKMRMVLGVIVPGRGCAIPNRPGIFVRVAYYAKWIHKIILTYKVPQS
Protocol: (§1) ELISA plates were coated with cytokines or BSA and further incubated with TNC III1-5 to analyze binding of TNC III1-5 to a wide variety of cytokines. […] A large amount of heparin (4 μM) impaired binding of TNC III1-5 to these cytokines. Results are depicted in FIG. 3. Method: 50 nM of cytokine was coated for (1 hr, 37° C.). After blocking with 2% BSA (1 hr, RT). 100 nM TNC III1-5 was applied in PBST (0.05% tween, 0.1% bovine serum albumin (BSA)) (1 hr, RT). TNC III1-5 was detected with horseradish peroxidase (HRP)-anti-HIS in PBST (1 hr, RT) and developed with 3,3′,5,5′-tetramethylbenzidine (TMB), a soluble colorimetric HRP […]. Addition of sulfuric acid stop solution changes the color to yellow, enabling accurate measurement of the intensity at 450 nm using a spectrophotometer or plate reader. […] Heparin (4 μM) was added to TNC III1-5 to test the effect of blocking the heparin binding site of TNC III1-5, which has been defined as domain TNC III5 (Weber, Zimmermann, et al., 1995).

FGF-9 = test: ELISA: cytokine coated (50 nM), 100 nM TNC III1-5 in solution, HRP-anti-His, A450
Protocol: as §1

BSA [1] = biological target: T1, BSA (bovine, UniProt P02769); test: ELISA: PDGF-BB or BSA coated, TNC III1-5 in solution at 0 to 1.2 µM, A450
T1 construct: negative control; also called bovine serum albumin
T1 sequence (P02769 25-607 limits assumed): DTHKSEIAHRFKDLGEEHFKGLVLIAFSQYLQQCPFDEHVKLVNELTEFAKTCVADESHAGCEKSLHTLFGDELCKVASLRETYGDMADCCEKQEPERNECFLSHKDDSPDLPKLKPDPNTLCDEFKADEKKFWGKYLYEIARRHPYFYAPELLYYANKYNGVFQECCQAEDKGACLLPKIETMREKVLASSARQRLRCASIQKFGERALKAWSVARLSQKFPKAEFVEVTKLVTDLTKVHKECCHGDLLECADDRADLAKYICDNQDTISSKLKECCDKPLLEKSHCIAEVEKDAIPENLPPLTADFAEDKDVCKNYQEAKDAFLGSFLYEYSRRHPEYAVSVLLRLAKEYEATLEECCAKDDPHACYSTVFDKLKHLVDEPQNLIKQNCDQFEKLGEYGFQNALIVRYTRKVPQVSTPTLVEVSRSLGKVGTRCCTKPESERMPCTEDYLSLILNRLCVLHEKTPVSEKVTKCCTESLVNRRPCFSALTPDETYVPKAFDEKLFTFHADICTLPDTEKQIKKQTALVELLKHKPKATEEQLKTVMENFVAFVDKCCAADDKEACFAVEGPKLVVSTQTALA
Protocol: as §1, with “100 nM TNC III1-5 was applied in PBST (0.05% tween, 0.1% bovine serum albumin (BSA)) (1 hr, RT).” left out

BSA [2] = biological target: T1, BSA; test: ELISA: GST-fused TNC domains, GST and BSA coated, 2 nM PDGF-BB in solution, anti-PDGF-BB antibody and HRP secondary, A450
Protocol: An ELISA was performed to test the affinity of different domains present in TNC1-5 to PDGF-BB as an example cytokine that has shown to bind TNC III1-5. Domain TNC III5 was defined to be responsible for cytokine binding. Method: ELISA plates were coated with individual TNC domains fused to GST, as well as GST and BSA. Wells were blocked with BSA and then incubated with 2 nM PDGF-BB. Binding of PDGF-BB was detected using an anti-PDGF-BB antibody and then a secondary horseradish peroxidase conjugated antibody.

TNC III1-5 [3] = biological target: B1; test: SPR, TNC III1-5 on the chip, cytokine injected, BSA reference channel
Protocol: (§2) Surface plasmon resonance (SPR) was done to quantify the affinity of specific cytokines to TNC III1-5. […] Method: Surface plasmon resonance chips were functionalized with TNC III1-5 or BSA and cytokines were injected over the chips at different concentrations. The chips contained gold with free carboxyl groups that were activated to bind TNC III1-5 in one channel and BSA as a reference protein in another channel. The specific response of a cytokine to TNC III1-5 (in RU) was obtained relative to the response to BSA. Results are depicted in FIG. 5.

TNC III1-5 [4] = biological target: B1; test: SPR: TNC III1-5 on the chip, BSA in the reference channel, cytokine injected at rising concentrations; Langmuir fit (legend paragraph 11 says TNC III5, Example 5 paragraph 115 says TNC III1-5)
Protocol: as §2

## B1
HGF
  binding result: binds
FGF-9
  binding result: no binding (tested: 100 nM)
BSA [1]
  binding result: no binding (tested: 1.2 µM)

B2: PDGF-BB (ligand, UniProt P01127 82-190, looked up)
chain: SLGSLTIAEPAMIAECKTRTEVFEISRRLIDRTNANFLVWPPCVEVQRCSGCCNNRNVQCRPTQVQLRPVQVRKIEIVRKKPIFKKATVTLEDHLACKCETVAAARPVT
notes: The name implies a homodimer of B chains
BSA [2]
  binding result: no binding (tested: 2 nM PDGF-BB)
TNC III1-5 [3]
  Kd: 3.9 nM
TNC III1-5 [4]
  koff: 0.0202 s⁻¹
  kon: 5.23e+06 M⁻¹ s⁻¹

B3: NT-3 (ligand, UniProt P20783 139-257, looked up)
chain: YAEHKSHRGEYSVCDSESLWVTDKSSAIDIRGHQVTVLGEIKTGNSPVKQYFYETRCKEARPVKNGCRGIDDKHWNSQCKTSQTYVRALTSENNKLVGWRWIRIDTSCVCALSRKIGRT
TNC III1-5 [3]
  Kd: 21 nM
TNC III1-5 [4]
  koff: 0.00106 s⁻¹
  kon: 50700 M⁻¹ s⁻¹
